In patent publication US20050118638A1:
Read-outs that look alike come from different tables or passages of the source.

Experiments:
[1] = target: TSH receptor (detergent solubilised TSH receptor preparation) (UniProt P16473); experiment: TSHR coated tubes after serum G25
[2] = target: TSH receptor (detergent solubilised TSH receptor preparation) (UniProt P16473); experiment: TSHR coated tubes after serum G49
[3] = target: TSH receptor (detergent solubilised TSH receptor preparation) (UniProt P16473); experiment: TSHR coated tubes after serum G52
[4] = target: TSH receptor (detergent solubilised TSH receptor preparation) (UniProt P16473); experiment: TSHR coated tubes, healthy blood donor sera
[5] = target: TSH receptor (detergent solubilised TSH receptor preparation) (UniProt P16473); experiment: TSHR coated tubes after serum G46
[6] = target: TSH receptor (detergent solubilised TSH receptor preparation) (UniProt P16473); experiment: TSHR coated tubes after serum NSF 16
[7] = target: TSH receptor (detergent solubilised TSH receptor preparation) (UniProt P16473); experiment: TSHR coated tubes after serum G39
[8] = target: TSH receptor (detergent solubilised TSH receptor preparation) (UniProt P16473); experiment: TSHR coated tubes after serum G23
[9] = target: TSH receptor (detergent solubilised TSH receptor preparation) (UniProt P16473); experiment: TSHR coated tubes after serum G47
[10] = target: TSH receptor (detergent solubilised TSH receptor preparation) (UniProt P16473); experiment: TSHR coated tubes after serum NSF 10
[11] = target: TSH receptor (detergent solubilised TSH receptor preparation) (UniProt P16473); experiment: TSHR coated tubes after serum G44
[12] = target: TSH receptor (detergent solubilised TSH receptor preparation) (UniProt P16473); experiment: TSHR coated tubes after serum G33
[13] = target: TSH receptor (detergent solubilised TSH receptor preparation) (UniProt P16473); experiment: TSHR coated tubes after serum G43
[14] = target: TSH receptor (detergent solubilised TSH receptor preparation) (UniProt P16473); experiment: TSHR coated tubes after serum G45
[15] = target: TSH receptor (detergent solubilised TSH receptor preparation) (UniProt P16473); experiment: TSHR coated tubes after serum NSF 4
[16] = target: TSH receptor (detergent solubilised TSH receptor preparation) (UniProt P16473); experiment: TSHR coated tubes after serum G28
[17] = target: TSH receptor (detergent solubilised TSH receptor preparation) (UniProt P16473); experiment: TSHR coated tubes after serum NSF 26
[18] = target: TSH receptor (detergent solubilised TSH receptor preparation) (UniProt P16473); experiment: TSHR coated tubes after serum G34
[19] = target: TSH receptor (detergent solubilised TSH receptor preparation) (UniProt P16473); experiment: TSHR coated tubes after serum NSF 20
[20] = target: TSH receptor (detergent solubilised TSH receptor preparation) (UniProt P16473); experiment: TSHR coated tubes after serum NSF 21
[21] = target: TSH receptor (detergent solubilised TSH receptor preparation) (UniProt P16473); experiment: TSHR coated tubes, healthy blood donor sera; remark: listed apart in the source
[22] = target: TSH receptor (detergent solubilised TSH receptor preparation) (UniProt P16473); experiment: TSHR coated tubes after serum G38
[23] = target: TSH receptor (detergent solubilised TSH receptor preparation) (UniProt P16473); experiment: TSHR coated tubes after serum G26
[24] = target: TSH receptor (detergent solubilised TSH receptor preparation) (UniProt P16473); experiment: TSHR coated tubes after serum NSF 22
[25] = target: TSH receptor (detergent solubilised TSH receptor preparation) (UniProt P16473); experiment: TSHR coated tubes after serum G37
[26] = target: TSH receptor (detergent solubilised TSH receptor preparation) (UniProt P16473); experiment: TSHR coated tubes after serum G24
[27] = target: TSH receptor (detergent solubilised TSH receptor preparation) (UniProt P16473); experiment: TSHR coated tubes after serum G29
[28] = target: TSH receptor (detergent solubilised TSH receptor preparation) (UniProt P16473); experiment: TSHR coated tubes after serum G30
[29] = target: TSH receptor (detergent solubilised TSH receptor preparation) (UniProt P16473); experiment: TSHR coated tubes after serum G27
[30] = target: TSH receptor (detergent solubilised TSH receptor preparation) (UniProt P16473); experiment: TSHR coated tubes after serum NSF 18
[31] = target: TSH receptor (detergent solubilised TSH receptor preparation) (UniProt P16473); experiment: TSHR coated tubes after serum G51
[32] = target: TSH receptor (detergent solubilised TSH receptor preparation) (UniProt P16473); experiment: TSHR coated tubes after serum G50
[33] = target: TSH receptor (detergent solubilised TSH receptor preparation) (UniProt P16473); experiment: TSHR coated tubes after serum NSF 17
[34] = target: TSH receptor (detergent solubilised TSH receptor preparation) (UniProt P16473); experiment: TSHR coated tubes after serum NSF 5
[35] = target: TSH receptor (detergent solubilised TSH receptor preparation) (UniProt P16473); experiment: TSHR coated tubes after serum G35
[36] = target: TSH receptor (detergent solubilised TSH receptor preparation) (UniProt P16473); experiment: TSHR coated tubes after serum G32
[37] = target: TSH receptor (detergent solubilised TSH receptor preparation) (UniProt P16473); experiment: 125I-TSHR immunoprecipitation; competitor TRAb of serum K3
[38] = target: TSH receptor (detergent solubilised TSH receptor preparation) (UniProt P16473); experiment: TSHR coated tubes after serum G48
[39] = target: TSH receptor (detergent solubilised TSH receptor preparation) (UniProt P16473); experiment: TSHR coated tubes after serum G36
[40] = target: TSH receptor (detergent solubilised TSH receptor preparation) (UniProt P16473); experiment: TSHR coated tubes after serum G41
[41] = target: TSH receptor (detergent solubilised TSH receptor preparation) (UniProt P16473); experiment: TSHR coated tubes after serum G40
[42] = target: TSH receptor (detergent solubilised TSH receptor preparation) (UniProt P16473); experiment: TSHR coated tubes after serum G31

Chain of TSH (thyrotrophin, thyroid stimulating hormone) (ligand) (P01223 21-132): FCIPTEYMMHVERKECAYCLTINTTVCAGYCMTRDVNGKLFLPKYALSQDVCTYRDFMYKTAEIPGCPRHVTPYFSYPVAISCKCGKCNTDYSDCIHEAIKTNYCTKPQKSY
Chain of TSH receptor (detergent solubilised TSH receptor preparation) (P16473 21-764 limits assumed): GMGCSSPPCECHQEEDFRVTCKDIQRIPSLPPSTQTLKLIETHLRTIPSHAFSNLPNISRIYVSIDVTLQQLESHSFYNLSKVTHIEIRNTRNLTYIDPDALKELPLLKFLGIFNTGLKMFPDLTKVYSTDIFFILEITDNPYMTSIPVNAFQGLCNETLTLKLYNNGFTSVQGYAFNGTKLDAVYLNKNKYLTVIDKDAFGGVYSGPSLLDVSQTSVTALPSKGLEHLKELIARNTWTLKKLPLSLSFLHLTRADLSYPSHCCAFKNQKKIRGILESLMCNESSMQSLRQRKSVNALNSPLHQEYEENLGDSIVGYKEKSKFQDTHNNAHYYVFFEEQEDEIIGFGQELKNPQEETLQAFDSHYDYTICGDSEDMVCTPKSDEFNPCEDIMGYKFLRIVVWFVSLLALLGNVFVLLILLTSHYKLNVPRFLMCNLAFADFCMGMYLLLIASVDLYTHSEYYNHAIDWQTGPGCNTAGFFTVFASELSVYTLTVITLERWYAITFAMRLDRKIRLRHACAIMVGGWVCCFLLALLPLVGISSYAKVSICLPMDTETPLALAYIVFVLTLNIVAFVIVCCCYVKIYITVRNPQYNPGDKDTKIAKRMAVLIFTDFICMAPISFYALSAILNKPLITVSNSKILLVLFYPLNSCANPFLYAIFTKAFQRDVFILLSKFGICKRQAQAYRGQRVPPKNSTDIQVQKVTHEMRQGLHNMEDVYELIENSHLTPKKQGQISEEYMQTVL

% total counts bound (% total counts added) [1]: 7.2
% total counts bound (% total counts added) [2]: 6.1
% total counts bound (% total counts added) [3]: 7.4
mean % total counts bound [4]: 12.1%
% total counts bound (% total counts added) [5]: 2.7
% total counts bound (% total counts added) [6]: 12
% total counts bound (% total counts added) [7]: 7.9
% total counts bound (% total counts added) [8]: 8.9
% total counts bound (% total counts added) [9]: 4.3
% total counts bound (% total counts added) [10]: 12.5
% total counts bound (% total counts added) [11]: 12.4
% total counts bound (% total counts added) [12]: 6.1
% total counts bound (% total counts added) [13]: 4
% total counts bound (% total counts added) [14]: 3.5
% total counts bound (% total counts added) [15]: 12.5
% total counts bound (% total counts added) [16]: 3.8
% total counts bound (% total counts added) [17]: 12.8
% total counts bound (% total counts added) [18]: 7.5
% total counts bound (% total counts added) [19]: 12.3
% total counts bound (% total counts added) [20]: 12.3
mean % total counts bound [21]: 12.2%
% total counts bound (% total counts added) [22]: 10
% total counts bound (% total counts added) [23]: 2.6
% total counts bound (% total counts added) [24]: 12.4
% total counts bound (% total counts added) [25]: 9.3
% total counts bound (% total counts added) [26]: 6.9
% total counts bound (% total counts added) [27]: 8
% total counts bound (% total counts added) [28]: 5.3
% total counts bound (% total counts added) [29]: 7.3
% total counts bound (% total counts added) [30]: 11.2
% total counts bound (% total counts added) [31]: 7.9
% total counts bound (% total counts added) [32]: 6.3
% total counts bound (% total counts added) [33]: 11.5
% total counts bound (% total counts added) [34]: 12.3
% total counts bound (% total counts added) [35]: 4.3
% total counts bound (% total counts added) [36]: 7.5
% inhibition of TRAb binding [37]: 55.4%
% total counts bound (% total counts added) [38]: 4.8
% total counts bound (% total counts added) [39]: 10.1
% total counts bound (% total counts added) [40]: 10.8
% total counts bound (% total counts added) [41]: 7.2
% total counts bound (% total counts added) [42]: 4.3
Substance: TSH (thyrotrophin, thyroid stimulating hormone) (ligand)
